How the values were obtained:
[1] = target: T1, CD36 on the surface of mouse peritoneal exudate macrophages (mouse (endogenous in peritoneal exudate …, UniProt Q08857 1-472)); assay: cellular ELISA; rCD14 with 1 μg/ml S-LPS on adherent PEMs, incubation on ice (0°C); bound rCD14 detected with HRP-anti-Fc; conditions: one partner purified
T1 construct: CD36, mouse, endogenous on the surface of peritoneal exudate macrophages; also called CD36 on PEMs; endogenous CD36; source: endogenous, on adherent thioglycollate-elicited peritoneal exudate macrophages of C57BL/6 mice
T1 sequence (Q08857 whole entry): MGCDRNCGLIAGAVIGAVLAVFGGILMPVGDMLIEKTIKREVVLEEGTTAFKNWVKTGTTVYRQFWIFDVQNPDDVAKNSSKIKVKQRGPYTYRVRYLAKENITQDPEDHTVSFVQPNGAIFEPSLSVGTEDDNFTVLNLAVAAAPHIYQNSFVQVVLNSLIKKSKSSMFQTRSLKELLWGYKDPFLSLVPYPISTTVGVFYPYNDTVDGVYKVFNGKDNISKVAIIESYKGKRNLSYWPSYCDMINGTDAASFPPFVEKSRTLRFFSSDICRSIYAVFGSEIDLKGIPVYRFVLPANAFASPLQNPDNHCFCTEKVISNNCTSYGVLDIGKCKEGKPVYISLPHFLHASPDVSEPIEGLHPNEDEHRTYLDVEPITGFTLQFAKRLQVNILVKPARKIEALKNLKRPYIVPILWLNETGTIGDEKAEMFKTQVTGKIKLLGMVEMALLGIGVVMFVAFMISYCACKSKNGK

[2] = target: T1, CD36 on the surface of mouse peritoneal …; assay: cellular ELISA; 5 μg/ml rCD14 with 1 μg/ml S-LPS on adherent PEMs, 50 min at 37°C in FCS-RPMI; bound rCD14 detected with HRP-anti-Fc; conditions: one partner purified

fold higher binding on ice than at 37°C [1]: ~2 fold | fold increase of binding with S-LPS over binding without LPS [2]: > 25 fold
B1: recombinant mouse CD14 tagged with the Fc fragment of human IgG1 (Fc fusion, UniProt P10810 16-336, looked up)
chain: SPAPPEPCELDEESCSCNFSDPKPDWSSAFNCLGAADVELYGGGRSLEYLLKRVDTEADLGQFTDIIKSLSLKRLTVRAARIPSRILFGALRVLGISGLQELTLENLEVTGTAPPPLLEATGPDLNILNLRNVSWATRDAWLAELQQWLKPGLKVLSIAQAHSLNFSCEQVRVFPALSTLDLSDNPELGERGLISALCPLKFPTLQVLALRNAGMETPSGVCSALAAARVQLQGLDLSHNSLRDAAGAPSCDWPSQLNSLNLSFTGLKQVPKGLPAKLSVLDLSYNRLDRNPSPDELPQVGNLSLKGNPFLDSESHSEKFN
notes: CD14, mouse, recombinant soluble receptor from R&D Systems; also called rCD14; source: bought: R&D Systems

From paper PMC4830570, “CD36 Differently Regulates Macrophage Responses to Smooth and Rough Lipopolysaccharide” (PLoS ONE, 2016)
